# Article PMC3817407
# T1: ECF11_3726
# T1 chain: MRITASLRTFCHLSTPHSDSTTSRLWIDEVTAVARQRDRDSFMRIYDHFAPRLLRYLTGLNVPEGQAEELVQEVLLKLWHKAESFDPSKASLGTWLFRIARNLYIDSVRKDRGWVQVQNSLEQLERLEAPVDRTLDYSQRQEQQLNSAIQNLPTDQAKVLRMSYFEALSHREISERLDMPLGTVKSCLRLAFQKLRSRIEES
# T2: ECF01_3473
# T2 chain: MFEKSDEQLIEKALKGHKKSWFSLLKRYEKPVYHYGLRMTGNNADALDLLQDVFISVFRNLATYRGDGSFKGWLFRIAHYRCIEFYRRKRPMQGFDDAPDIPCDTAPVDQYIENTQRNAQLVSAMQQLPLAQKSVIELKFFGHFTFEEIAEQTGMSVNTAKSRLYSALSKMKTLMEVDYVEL
# T3: ECF25_1645
# T3 chain: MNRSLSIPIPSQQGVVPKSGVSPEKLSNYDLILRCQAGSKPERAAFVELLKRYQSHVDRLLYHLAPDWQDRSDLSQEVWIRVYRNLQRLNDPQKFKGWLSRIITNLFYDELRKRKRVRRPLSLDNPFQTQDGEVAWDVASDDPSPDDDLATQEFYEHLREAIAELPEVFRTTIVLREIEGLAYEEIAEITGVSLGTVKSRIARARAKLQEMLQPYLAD
# T4: ECF31_34
# T4 chain: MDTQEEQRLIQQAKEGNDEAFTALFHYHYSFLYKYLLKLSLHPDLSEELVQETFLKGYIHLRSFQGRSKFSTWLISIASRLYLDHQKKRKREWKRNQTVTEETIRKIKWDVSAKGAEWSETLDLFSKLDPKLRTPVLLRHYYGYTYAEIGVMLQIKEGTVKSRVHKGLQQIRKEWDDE
# T5: ECF16_3622
# T5 chain: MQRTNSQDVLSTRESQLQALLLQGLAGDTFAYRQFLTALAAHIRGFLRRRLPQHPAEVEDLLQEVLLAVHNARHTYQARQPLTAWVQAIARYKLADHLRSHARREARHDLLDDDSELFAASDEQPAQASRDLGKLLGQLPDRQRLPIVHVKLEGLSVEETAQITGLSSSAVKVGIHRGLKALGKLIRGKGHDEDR
# T6: ECF16_973
# T6 chain: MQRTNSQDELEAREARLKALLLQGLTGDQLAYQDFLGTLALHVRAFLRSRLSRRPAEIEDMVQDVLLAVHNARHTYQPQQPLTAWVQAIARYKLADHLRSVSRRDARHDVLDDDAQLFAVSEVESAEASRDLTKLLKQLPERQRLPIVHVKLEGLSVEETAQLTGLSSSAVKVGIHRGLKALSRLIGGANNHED
# T7: ECF38_1322
# T7 chain: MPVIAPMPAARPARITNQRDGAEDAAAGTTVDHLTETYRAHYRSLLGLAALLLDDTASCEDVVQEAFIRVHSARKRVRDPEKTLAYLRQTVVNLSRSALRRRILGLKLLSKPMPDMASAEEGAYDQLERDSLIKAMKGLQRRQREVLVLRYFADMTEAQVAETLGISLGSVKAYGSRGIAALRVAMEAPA
# T8: ECF15_524
# T8 chain: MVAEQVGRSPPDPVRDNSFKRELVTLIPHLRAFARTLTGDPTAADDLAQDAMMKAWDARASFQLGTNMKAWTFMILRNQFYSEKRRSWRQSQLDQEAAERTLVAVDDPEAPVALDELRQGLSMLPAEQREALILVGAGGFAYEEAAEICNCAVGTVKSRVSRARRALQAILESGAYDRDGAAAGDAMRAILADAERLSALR
# T9: ECF14_3200
# T9 chain: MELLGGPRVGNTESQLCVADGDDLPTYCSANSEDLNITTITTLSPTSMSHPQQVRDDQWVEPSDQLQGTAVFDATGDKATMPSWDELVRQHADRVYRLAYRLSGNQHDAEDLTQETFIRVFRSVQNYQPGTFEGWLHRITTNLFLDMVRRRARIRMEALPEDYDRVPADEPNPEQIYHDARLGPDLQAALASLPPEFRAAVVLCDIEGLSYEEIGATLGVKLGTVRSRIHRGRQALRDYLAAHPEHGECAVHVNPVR
# T10: ECF02_2817
# T10 chain: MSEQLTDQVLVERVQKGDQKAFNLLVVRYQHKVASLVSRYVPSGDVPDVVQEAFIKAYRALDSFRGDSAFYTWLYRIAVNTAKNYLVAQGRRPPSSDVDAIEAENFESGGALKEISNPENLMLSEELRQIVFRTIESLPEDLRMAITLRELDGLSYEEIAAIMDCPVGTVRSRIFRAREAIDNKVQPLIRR
# T11: ECF03_1198
# T11 chain: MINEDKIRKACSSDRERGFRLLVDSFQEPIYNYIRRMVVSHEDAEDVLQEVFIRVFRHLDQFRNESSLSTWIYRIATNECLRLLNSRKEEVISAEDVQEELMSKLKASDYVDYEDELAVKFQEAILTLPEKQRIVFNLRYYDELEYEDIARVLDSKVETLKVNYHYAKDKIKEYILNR
# T12: ECF37_2513
# T12 chain: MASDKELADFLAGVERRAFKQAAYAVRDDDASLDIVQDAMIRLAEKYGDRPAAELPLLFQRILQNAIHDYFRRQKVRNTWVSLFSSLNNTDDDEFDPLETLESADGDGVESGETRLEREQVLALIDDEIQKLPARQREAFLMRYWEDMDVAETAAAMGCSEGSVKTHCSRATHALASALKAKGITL
# T13: ECF27_4265
# T13 chain: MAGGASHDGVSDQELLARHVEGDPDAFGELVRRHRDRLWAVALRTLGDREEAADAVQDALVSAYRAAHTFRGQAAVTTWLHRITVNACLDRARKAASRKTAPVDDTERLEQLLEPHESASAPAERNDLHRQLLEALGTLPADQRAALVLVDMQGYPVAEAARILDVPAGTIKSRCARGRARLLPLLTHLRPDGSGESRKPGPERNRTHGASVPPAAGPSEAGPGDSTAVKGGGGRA
# B1: AS25_1645 (protein)
# chain: MNESFSQRQTDGDRRRGGDLEMKKNHTSHQHHTDSETPMGHNFEQFQRLSAYFDGEATPAERKEIQHLLDTDPQVKQQYQQLRQLKQALQLLPIPTSISAQYLGQRVLARLRRSQLRTLSLWGSGAIAALFVAGVMGQMPRLNFDRFAKNDPDQQPTAALVETSPQGEEALVVALNRPVLQIPKLATTESP
# B2: AS25_1643_cl43 (protein)
# chain: MTTDSNFNDPCRRQFSRDLPQKMARHTNEATGAMDMVKRDRFELLSAYLGGEVTAAERRQVEDWPANDVAVQRLYSRLLKLRQGIRTMPIPTAQQSPETTAEQVFAKVNRRSRLAWKLGGAAVAACVIGAVTNWLPGRQTGIPQLAQQPQEQPTQAVTTPDALPMIALNNPVIEIPKAAVASPTKFIQPQPQLGEIPPDIN
# B3: AS22_4450 (protein)
# chain: MELDDMKHAWQTLEQRLDQQAAQTGQLLGVVHEETVRSSLRPLWVAQTAQLLCALALAIVSARSWIPHTDQPVAVIGGVLLQAWCMALAISAMVQLQLLTQFNVAGPLLRTQHALARLRRWRTRVAPWLGVAFWVLWIAVADALWRALTGQTLPTDWLVLNLLVGVAGGIGTWLGFRRLQRAQHPWLERIDRAHAGTGVIRAERMLEEIARFQRD
# B4: AS27_1331 (protein)
# chain: MSAADKDPDKHSADADPPLTVELLADLQAGLLDDATAARIRSRVRSDPQAQQILRALNRVRRDVAAMGADPAWGPAARPAVVDSISAALRSARPNSSPGAAHAARPHVHPVRMIAGAAGLCAVATAIGVGAVVDAPPPAPSAPTTAQHITVSKPAPVIPLSRPQVLDLLHHTPDYGPPGGPLGDPSRRTSCLSGLGYPASTPVLGAQPIDIDARPAVLLVIPADTPDKLAVFAVAPHCSAADTGLLASTVVPRA
# B5: AS22_1147 (protein)
# chain: MELDDIAVAWRSLEQRLDQHAALAGQVLGDLRSHAARAHLRPLWLSQSAQLLCAIALSGLVAHSWLAFPEQAAAIVGGVLLQIWCVALAASAARQLWLLSQLDFARPLLQTQRALAQLRRWRTRVAPWLGVAFWVLWVAVADAAWRALTGRSLPYAWLLCNLLVGVLGGIGTWLGYRRLQRSGHPWLERLDTVHAGRSVARTETLLEQIARFQRE
# Key:
# ECF11_3726 = biological target: T1, ECF11_3726
# ECF01_3473 = biological target: T2, ECF01_3473
# ECF25_1645 = biological target: T3, ECF25_1645
# ECF31_34 = biological target: T4, ECF31_34
# ECF16_3622 = biological target: T5, ECF16_3622
# ECF16_973 = biological target: T6, ECF16_973
# ECF38_1322 = biological target: T7, ECF38_1322
# ECF15_524 = biological target: T8, ECF15_524
# ECF14_3200 = biological target: T9, ECF14_3200
# ECF02_2817 = biological target: T10, ECF02_2817
# ECF03_1198 = biological target: T11, ECF03_1198
# ECF37_2513 = biological target: T12, ECF37_2513
# ECF27_4265 = biological target: T13, ECF27_4265
Binder,fold repression (ECF11_3726),fold repression (ECF01_3473),fold repression (ECF25_1645),fold repression (ECF31_34),fold repression (ECF16_3622),fold repression (ECF16_973),fold repression (ECF38_1322),fold repression (ECF15_524),fold repression (ECF14_3200),fold repression (ECF02_2817),fold repression (ECF03_1198),fold repression (ECF27_1331),fold repression (ECF37_2513),fold repression (ECF27_4265)
B1,13.1,7.11,33.7,5.66,6.9,5.41,3.98,6.73,14.2,9.88,7.37,11.2,7.52,24.5
B2,4.29,2.75,7.28,1.58,2.26,1.22,0.931,1.18,5.41,4.05,1.92,1.96,1.9,0.954
B3,1.93,1.32,1.42,1.48,1.79,1.71,1.78,1.53,1.94,1.98,2.46,1.37,1.51,1.4
B4,5.02,2.69,3.12,5.7,6.93,5.57,3.98,3.38,2.68,2.82,3.98,3.32,2.75,5.34
B5,3.72,3.03,2.27,2.31,2.91,2.57,1.99,2.65,5.04,2.38,2.82,3.07,3.66,1.86
